# T1: CS-1 (human, UniProt Q9NQ25 23-335)
# T1 sequence (looked up): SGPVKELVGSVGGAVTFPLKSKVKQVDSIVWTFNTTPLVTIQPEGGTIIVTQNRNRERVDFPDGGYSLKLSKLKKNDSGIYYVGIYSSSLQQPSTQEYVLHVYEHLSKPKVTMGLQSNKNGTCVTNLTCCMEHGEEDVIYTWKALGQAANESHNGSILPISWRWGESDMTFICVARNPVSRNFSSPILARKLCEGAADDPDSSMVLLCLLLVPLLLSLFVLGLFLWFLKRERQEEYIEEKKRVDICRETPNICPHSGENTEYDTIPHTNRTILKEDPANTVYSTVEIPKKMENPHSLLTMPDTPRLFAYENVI
# B1: anti-CS-1 tri-specific cytotoxic lymphocytes engager (TriCLE) (bispecific antibody)
# chain: QVQLVESGGGLVKPGGSLRLSCAASGFTFSSYGMHWVRQAPGKGLEWVAFIRYDGSNKYYADSVKGRFTISRDNSKNTLYLQMNSLRAEDTAVYYCAKDRGLGDGTYFDYWGQGTTVTVSSGGGGSGGGGSGGGGSQSALTQPASVSGSPGQSITISCSGSSSNIGNNAVNWYQQLPGKAPKLLIYYDDLLPSGVSDRFSGSKSGTSAFLAISGLQSEDEADYYCAAWDDSLNGPVFGGGTKLTVLPSGQAGAAASESLFVSNHAYKLELKTGAGFTLPTSYHQQCYYVALDEAQVNSITFTFDTGSGSGTFRDPVGTYRYSASYILLKPSQGPKQQYWAVGTIVDQSAKCTISVRDGVSTSMSKQSQTMVIDGGGGSGGGGSGGGGSSVTVSTGQGWYDMARTAIMTSRACYYVASDESTPSSLQMYATSSSKDVTLTAKDKFKQNLRTESDSPHIMGIWELGQGPRQKVWNMWYTTFSYGSAKCSLKVSAGPRVLEAGPQQLQVQSHHHHHH
# Biological target: T1, CS-1
# Assay: cell-based or functional assay
binder,measurement,value
B1,EC50 of cytotoxicity of TriCLE-activated PBMCs against H929,1.2 nM
same,EC50 of cytotoxicity of TriCLE-activated PBMCs against MM1.s,3 pM
same,EC50 of cytotoxicity of TriCLE-activated PBMCs against RPMI-8226,1.8 nM
